How the values were obtained:
[1] = system: HeLa Kyoto; experiment: solubility in G1/S (NP-40 vs SDS abundance) (log2 ratio); higher = more soluble; conditions: cell cycle stage: G1/S
[2] = system: HeLa Kyoto; experiment: melting temperature (median over replicates), in situ; higher = more thermally stable
[3] = system: HeLa Kyoto; experiment: solubility change mitosis vs G1/S (difference of NP-40 vs SDS log2 ratios) (log2 ratio difference); higher = more soluble in mitosis
[4] = system: HeLa Kyoto; experiment: thermal stability score vs G1/S (z-score of summed log2 fold changes over temperatures); higher = more thermally stable than in G1/S
[5] = cell cycle stage: early G1 (4.5 h after nocodazole release)
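Throughout, for melting temperature (median over replicates), in situ: HeLa Kyoto cells synchronized by double thymidine or nocodazole block, proteins quantified by TMT10plex mass spectrometry, three independent biological replicates.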
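Throughout, for solubility change mitosis vs G1/S (difference of NP-40 vs SDS log2 ratios): synchronized HeLa Kyoto cells (double thymidine block for G1/S, nocodazole release for mitosis), protein amounts in NP-40 versus SDS lysates quantified by mass spectrometry, three biological replicates.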
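Throughout, for solubility in G1/S (NP-40 vs SDS abundance): HeLa Kyoto cells arrested at G1/S by double thymidine block, proteins quantified by TMT10plex mass spectrometry in mild NP-40 versus SDS extracts, three biological replicates.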
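Throughout, for thermal stability score vs G1/S (z-score of summed log2 fold changes over temperatures): synchronized HeLa Kyoto cells, proteins quantified by TMT10plex mass spectrometry, three biological replicates, mitosis taken 0.5 h after nocodazole release, G1/S directly after double thymidine block.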

Substance | solubility in G1/S (log2) [1] | melting temperature ([2]; cell cycle stage: G1/S) [°C] | melting temperature ([2]; cell cycle stage: mitosis) [°C] | solubility change mitosis (log2) [3] | thermal stability score [4, 5] | thermal stability score ([4]; cell cycle stage: mitosis)
MSVRVARVAWVRGLGASYRRGASSFPVPPPGAQGVAELLRDATGAEEEAPWAATERRMPGQCSVLLFPGQGSQVVGMGRGLLNYPRVRELYAAARRVLGYDLLELSLHGPQETLDRTVHCQPAIFVASLAAVEKLHHLQPSVIENCVAAAGFSVGEFAALVFAGAMEFAEGLYAVKIRAEAMQEASEAVPSGMLSVLGQPQSKFNFACLEAREHCKSLGIENPVCEVSNYLFPDCRVISGHQEALRFLQKNSSKFHFRRTRMLPVSGAFHTRLMEPAVEPLTQALKAVDIKKPLVSVYSNVHAHRYRHPGHIHKLLAQQLVSPVKWEQTMHAIYERKKGRGFPQTFEVGPGRQLGAILKSCNMQAWKSYSAVDVLQTLEHVDLDPQEPPR [MT] | -0.124 | 59 | 56.6 | -0.162 | -1.31 | -2.45
MHVIKRDGRQERVMFDKITSRIQKLCYGLNMDFVDPAQITMKVIQGLYSGVTTVELDTLAAETAATLTTKHPDYAILAARIAVSNLHKETKKVFSDVMEDLYNYINPHNGKHSPMVAKSTLDIVLANKDRLNSAIIYDRDFSYNYFGFKTLERSYLLKINGKVAERPQHMLMRVSVGIHKEDIDAAIETYNLLSERWFTHASPTLFNAGTNRPQLSSCFLLSMKDDSIEGIYDTLKQCALISKSAGGIGVAVSCIRATGSYIAGTNGNSNGLVPMLRVYNNTARYVDQGGNKRPGAFAIYLEPWHLDIFEFLDLKKNTGKEEQRARDLFFALWIPDLFMKRVETNQDWSLMCPNECPGLDEVWGEEFEKLYASYEKQGRVRKVVKAQQLWYAIIESQTETGTPYMLYKDSCNRKSNQQNLGTIKCSNLCTEIVEYTSKDEVAVCNLASLALNMYVTSEHTYDFKKLAEVTKVVVRNLNKIIDINYYPVPEACLSNKRHRPIGIGVQGLADAFILMRYPFESAEAQLLNKQIFETIYYGALEASCDLAKEQGPYETYEGSPVSKGILQYDMWNVTPTDLWDWKVLKEKIAKYGIRNSLLIAPMPTASTAQILGNNESIEPYTSNIYTRRVLSGEFQIVNPHLLKDLTERGLWHEEMKNQIIACNGSIQSIPEIPDDLKQLYKTVWEISQKTVLKMAAERGAFIDQSQSLNIHIAEPNYGKLTSMHFYGWKQGLKTGMYYLRTRPAANPIQFTLNKEKLKDKEKVSKEEEEKERNTAAMVCSLENRDECLMCGS [RRM1] | -0.148 | 56.1 | 53.8 | -0.154 | -8.92 | -8.47
MSGESARSLGKGSAPPGPVPEGSIRIYSMRFCPFAERTRLVLKAKGIRHEVININLKNKPEWFFKKNPFGLVPVLENSQGQLIYESAITCEYLDEAYPGKKLLPDDPYEKACQKMILELFSKVPSLVGSFIRSQNKEDYAGLKEEFRKEFTKLEEVLTNKKTTFFGGNSISMIDYLIWPWFERLEAMKLNECVDHTPKLKLWMAAMKEDPTVSALLTSEKDWQGFLELYLQNSPEACDYGL [GSTO1] | 0.508 | 53.7 | 54.2 | -0.0339 | 1.3 | -0.166
NUP98 | -0.162 | 48.4 | 48.6 | 0.26 | -1.52 | -1.57
MEGMDVDLDPELMQKFSCLGTTDKDVLISEFQRLLGFQLNPAGCAFFLDMTNWNLQAAIGAYYDFESPNISVPSMSFVEDVTIGEGESIPPDTQFVKTWRIQNSGAEAWPPGVCLKYVGGDQFGHVNMVMVRSLEPQEIADVSVQMCSPSRAGMYQGQWRMCTATGLYYGDVIWVILSVEVGGLLGVTQQLSSFETEFNTQPHRKVEGNFNPFASPQKNRQSDENNLKDPGGSEFDSISKNTWAPAPDTWAPAPDQTEQDQNRLSQNSVNLSPSSHANNLSVVTYSKGLHGPYPFGQS [C6ORF106] | 0.214 | 49.4 | – | -0.211 | 0.563 | 0.668
MWSEGRYEYERIPRERAPPRSHPSDGYNRLVNIVPKKPPLLDRPGEGSYNRYYSHVDYRDYDEGRSFSHDRRSGPPHRGDESGYRWTRDDHSASRQPEYRDMRDGFRRKSFYSSHYARERSPYKRDNTFFRESPVGRKDSPHSRSGSSVSSRSYSPERSKSYSFHQSQHRKSVRPGASYKRQNEGNPERDKERPVQSLKTSRDTSPSSGSAVSSSKVLDKPSRLTEKELAEAASKWAAEKLEKSDESNLPEISEYEAGSTAPLFTDQPEEPESNTTHGIELFEDSQLTTRSKAIASKTKEIEQVYRQDCETFGMVVKMLIEKDPSLEKSIQFALRQNLHEIESAGQTWQQVPPVRNTEMDHDGTPENEGEETAQSAPQPPQAPQPLQPRKKRVRRTTQLRRTTGAPDITWGMLKKTTQEAERILLRTQTPFTPENLFLAMLSVVHCNSRKDVKPENKQ [PPHLN1] | -0.763 | 52.2 | 50.4 | 0.849 | 0.616 | 1.63
